2 molecules from patent US20260098102A1 (NATIONAL UNIVERSITY CORPORATION KOBE UNIVERSITY, published 2026) can be followed below.

A word on the Kd: it is the concentration at which binding is half-saturated. Low readings indicate tighter binding, high ones weaker binding. As a reminder, the IC50 is the concentration that inhibits the measured activity by half. A word on the EC50 (read off the curve): it is the concentration that produces a half-maximal response. High values mean lower potency in that assay, low ones higher potency in that assay.

Test [1] deals with T1, SIRPA_V2_IgV (human).
T1 construct: Secreted recombinant protein; The crystal model held residues 33 to 143 of human SIRPA Variant 2
Nature of the test: SPR Biacore T200, antibody captured on anti-human IgG (Fc), SIRPA_V2_IgV as analyte (0.25 to 16 nM), 1:1 model. As to the method: The dissociation constants were measured by a capture method comprising capturing each antibody as a ligand to an Anti-Human IgG (Fc) antibody immobilized using Human Antibody Capture Kit (GE Healthcare Bioscience Corp.) and measuring an antigen as an analyte, using Biacore T200 (GE Healthcare Bioscience Corp.). HBS-EP+ (GE Healthcare Bioscience Corp.) was used as a running buffer, and CM5 (GE Healthcare Bioscience Corp.) was used as a sensor chip. Onto the chip, 2 μg/mL of various antibodies were added at 10 μL/min for 30 seconds, then a serially diluted solution (0.25 to 16 nM) of the human SIRPA protein as an antigen was added at a flow rate of 30 μL/min for 120 seconds, and subsequently the dissociation phase for 600 seconds was monitored. As a regenerant, 3 M magnesium chloride (GE Healthcare Bioscience Corp.) was added at a flow rate of 20 μL/min for 30 seconds. For data analysis, a binding rate constant (ka), a dissociation rate constant (kd), and a dissociation constant (KD; KD=kd/ka) were calculated using a 1:1 binding model.
(In SPR one partner is held on a chip, and binding of the other changes the refractive index at the surface.)

The target of test [2] is T2, human SIRPA_V2 protein (human, UniProt P78324 31-504).
T2 construct: Expressed on 293α cells from pcDNA3.2 V5-DEST or pFLAG V5-DEST (FLAG-tagged) vectors; also called human SIRPA Variant 2; ECD variant (full-length, amino acids 1 to 504)
Nature of the test: blocking cell-based ELISA: peroxidase-labeled CD47-Fc (1 µg/mL) on 293α cells expressing SIRPA_V2. How it is done:
After the culture supernatant of the human SIRPA_V1 or V2 expression vector-introduced 293 cells prepared in Example 9)-1 was removed, 50 μL per well of various anti-SIRPA antibodies or various control Human IgG diluted with 5% FBS-containing PBS to a final concentration of 0 to 10,000 ng/ml was added to each of pcDNA3.2 V5-DEST-SIRPA_V1 or V2-introduced 293α cells, immediately followed by addition of 50 µL per well of peroxidase-labeled CD47-Fc prepared with 5% FBS-containing PBS at 1 μg/mL, and the mixture was allowed to stand at 4° C. for one hour. Thereafter, the SIRPA-CD47 binding inhibitory activity was evaluated in the same manner as in 1)-6-3.
(In general: ELISA stands for enzyme-linked immunosorbent assay.)

Test [3] concerns the target T3, human SIRPA_V1 protein (human, UniProt P78324 31-504).
T3 construct: Expressed on 293α cells from pcDNA3.2 V5-DEST or pFLAG V5-DEST (FLAG-tagged) vectors; also called human SIRPA Variant 1; hSIRPA V1
Nature of the test: blocking cell-based ELISA: peroxidase-labeled CD47-Fc (10,000 ng/mL) on 293α cells expressing SIRPA_V1; y axis = CD47-Fc signal in % of no antibody [i]. How it is done:
After the culture supernatant of the human SIRPA and monkey SIRPA expression vector-introduced 293α cells prepared in Examples 5)-1 and 5)-2, respectively, was removed, 50 μL per well of cD13 (IgG2 and IgG4pf), cF44 (four different constant regions IgG1, IgG2, IgG4p, and IgG4pf), and cF63 (IgG2 and IgG4pf) diluted with 5% FBS-containing PBS to final concentrations of 0 to 10,000 ng/mL were added to each of pcDNA3.2 V5-DEST-SIRPA_V1, pcDNA3.2 V5-DEST-monkey SIRPA, and pcDNA3.2 V5-DEST-introduced 293α cells, immediately followed by addition of 50 μL per well of peroxidase-labeled CD47-Fc prepared in 5% FBS-containing PBS at a final concentration of 10,000 ng/ml, and the mixture was allowed to stand at 4° C. for one hour. Thereafter, the SIRPA-CD47 binding inhibitory activity was evaluated in the same manner as in 1)-6-3.

Test [4] concerns the target T3, human SIRPA_V1 protein. Nature of the test: cell-based ELISA on 293α cells expressing FLAG-tagged SIRPA_V1; Abs 490 normalized to FLAG tag.

T3 sequence (P78324 31-504 limits assumed): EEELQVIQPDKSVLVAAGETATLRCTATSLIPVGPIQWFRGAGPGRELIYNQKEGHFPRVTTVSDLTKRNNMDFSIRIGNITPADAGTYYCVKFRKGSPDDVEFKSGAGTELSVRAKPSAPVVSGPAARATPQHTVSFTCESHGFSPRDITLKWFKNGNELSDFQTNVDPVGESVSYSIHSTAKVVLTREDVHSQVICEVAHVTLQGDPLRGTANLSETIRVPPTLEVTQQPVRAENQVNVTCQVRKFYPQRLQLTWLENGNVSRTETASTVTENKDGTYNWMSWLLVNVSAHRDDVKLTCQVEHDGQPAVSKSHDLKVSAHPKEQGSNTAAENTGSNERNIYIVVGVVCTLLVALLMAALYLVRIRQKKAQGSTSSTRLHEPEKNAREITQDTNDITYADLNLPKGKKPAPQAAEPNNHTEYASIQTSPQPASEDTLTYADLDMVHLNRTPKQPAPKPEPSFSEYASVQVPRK
T2 sequence (P78324 other isoform, or with tags, fused parts or gaps limits assumed): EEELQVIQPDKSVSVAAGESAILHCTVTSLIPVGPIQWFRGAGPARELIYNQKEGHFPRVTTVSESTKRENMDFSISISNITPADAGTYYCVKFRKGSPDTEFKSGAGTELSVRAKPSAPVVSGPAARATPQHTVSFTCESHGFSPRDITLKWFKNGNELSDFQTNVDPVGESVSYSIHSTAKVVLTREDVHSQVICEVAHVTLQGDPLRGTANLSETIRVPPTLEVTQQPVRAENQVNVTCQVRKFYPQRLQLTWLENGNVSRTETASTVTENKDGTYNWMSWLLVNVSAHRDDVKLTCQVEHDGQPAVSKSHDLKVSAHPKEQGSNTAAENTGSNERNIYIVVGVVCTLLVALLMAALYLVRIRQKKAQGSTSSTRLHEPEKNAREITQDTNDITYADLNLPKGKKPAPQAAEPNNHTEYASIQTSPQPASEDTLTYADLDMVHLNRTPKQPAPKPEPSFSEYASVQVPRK
T1 sequence (chain, as listed by the source limits assumed): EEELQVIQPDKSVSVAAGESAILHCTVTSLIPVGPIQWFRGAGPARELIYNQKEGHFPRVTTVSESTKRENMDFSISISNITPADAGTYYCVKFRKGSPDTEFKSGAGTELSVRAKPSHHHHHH

B1: humanized anti-SIRPA antibody hD13_H1L3 (antibody, human IgG4 S228P, kappa, F234A L235A, V domains shown)
VH: QVQLVESGGGVVQPGRSLRLSCAASGFTFSDYGMIWVRQAPGKGLEWVASISSSSSYIYYADSVKGRFTISRDNSKNRLYLQMNSLRAEDTAVYYCARRYYGFNYPFDYWGQGTMVTVSS
VL: DTQLTQSPSSLSASVGQRVTITCGASKSVRTYMHWYQQKPGKQPKLLIYSASNLEAGVPSRFSGSGSGTDFTLTISSLQPEDFATYYCQQSNEPPYTFGQGTKLEIKR
notes: hH1 heavy chain (IgG4proFALA) and hL3 kappa light chain; also called hD13_HIL3; HIL3 antibody
B1 showed a dissociation constant (Kd) in test [1] of 1.17 nM. Moreover, the IC50 in test [2] came out at 1.3 µg/mL.

B2: human chimeric anti-SIRPA antibody cD13 (antibody, human IgG4 S228P, kappa, F234A L235A, V domains shown)
VH: EVQLVESGGGLVQPGRSLKLSCLASGFTFSDYGMIWVRQAPGKGLEWVASISSSSSYIYYADTVKGRFTISRENAKNTLFLHMTSLRSEDTALYYCARRYYGFNYPFDYWGQGVMVTVSS
VL: DTVLTQSPALAVSLGQRVTISCGASKSVRTYMHWYQQKSGQQPKLLIYSASNLEAGVPSRFSGSGSGTDFTLTIDPVEADDIANYYCQQSNEPPYTFGAGTKLELKR
notes: Human IgG4proFALA heavy chain, human kappa light chain; also called cD13 (IgG4pf); human chimeric antibody D13
For B2, the “IC50 (read off the curve)” value in test [3] was ~0.1 µg/mL. Further, in test [4], the concentration giving a half-maximal response (EC50 (read off the curve)) is ~0.08 µg/mL.
